Data as given in paper PMC11194062, “The clade-specific target recognition mechanisms of plant RISCs”.

How the values were obtained:
[1] = target: T1, AGO6 D623A (Arabidopsis thaliana, UniProt O48771 1-878, D623A); assay: filter binding; 100 mM KOAc, 18 mM HEPES pH 7.4, 3 mM Mg(OAc)2, 5 mM DTT, 0.01% IGEPAL CA-630, 0.01 mg/ml yeast tRNA; 20 pM target; 25 C, 1 h; conditions: protein: ivt; tags: N-terminal 3xFLAG-SUMO, removed by SUMOstar elution; label: target 3' 32P-cordycepin; target 28 nt
T1 sequence: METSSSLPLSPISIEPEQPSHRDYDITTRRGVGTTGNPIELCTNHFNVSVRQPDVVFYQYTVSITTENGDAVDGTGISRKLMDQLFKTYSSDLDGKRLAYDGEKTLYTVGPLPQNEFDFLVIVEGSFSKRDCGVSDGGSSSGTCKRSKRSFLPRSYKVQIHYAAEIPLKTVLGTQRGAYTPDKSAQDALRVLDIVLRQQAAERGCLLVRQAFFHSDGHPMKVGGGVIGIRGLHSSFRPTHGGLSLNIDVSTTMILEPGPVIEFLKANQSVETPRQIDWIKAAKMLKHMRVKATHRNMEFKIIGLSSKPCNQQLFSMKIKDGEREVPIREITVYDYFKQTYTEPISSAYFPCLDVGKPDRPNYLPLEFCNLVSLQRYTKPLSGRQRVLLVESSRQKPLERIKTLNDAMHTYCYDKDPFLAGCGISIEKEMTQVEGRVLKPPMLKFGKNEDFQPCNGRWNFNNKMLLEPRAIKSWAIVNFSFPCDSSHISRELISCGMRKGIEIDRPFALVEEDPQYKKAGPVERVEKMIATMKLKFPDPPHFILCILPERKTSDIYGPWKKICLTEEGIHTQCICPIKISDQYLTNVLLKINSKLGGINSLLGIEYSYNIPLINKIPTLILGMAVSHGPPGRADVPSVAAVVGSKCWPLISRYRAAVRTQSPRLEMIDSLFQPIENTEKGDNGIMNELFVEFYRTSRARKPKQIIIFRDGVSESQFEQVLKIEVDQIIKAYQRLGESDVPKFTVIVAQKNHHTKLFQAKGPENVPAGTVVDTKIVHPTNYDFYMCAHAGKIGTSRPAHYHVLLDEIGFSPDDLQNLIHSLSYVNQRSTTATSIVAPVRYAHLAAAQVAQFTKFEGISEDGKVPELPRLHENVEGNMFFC

[2] = target: T2, AGO9 D632A (Arabidopsis thaliana, UniProt Q84VQ0 1-896, D632A); assay: as above; conditions: protein: ivt; tags: N-terminal 3xFLAG-SUMO, removed by SUMOstar elution; label: target 3' 32P-cordycepin; target 28 nt
T2 sequence: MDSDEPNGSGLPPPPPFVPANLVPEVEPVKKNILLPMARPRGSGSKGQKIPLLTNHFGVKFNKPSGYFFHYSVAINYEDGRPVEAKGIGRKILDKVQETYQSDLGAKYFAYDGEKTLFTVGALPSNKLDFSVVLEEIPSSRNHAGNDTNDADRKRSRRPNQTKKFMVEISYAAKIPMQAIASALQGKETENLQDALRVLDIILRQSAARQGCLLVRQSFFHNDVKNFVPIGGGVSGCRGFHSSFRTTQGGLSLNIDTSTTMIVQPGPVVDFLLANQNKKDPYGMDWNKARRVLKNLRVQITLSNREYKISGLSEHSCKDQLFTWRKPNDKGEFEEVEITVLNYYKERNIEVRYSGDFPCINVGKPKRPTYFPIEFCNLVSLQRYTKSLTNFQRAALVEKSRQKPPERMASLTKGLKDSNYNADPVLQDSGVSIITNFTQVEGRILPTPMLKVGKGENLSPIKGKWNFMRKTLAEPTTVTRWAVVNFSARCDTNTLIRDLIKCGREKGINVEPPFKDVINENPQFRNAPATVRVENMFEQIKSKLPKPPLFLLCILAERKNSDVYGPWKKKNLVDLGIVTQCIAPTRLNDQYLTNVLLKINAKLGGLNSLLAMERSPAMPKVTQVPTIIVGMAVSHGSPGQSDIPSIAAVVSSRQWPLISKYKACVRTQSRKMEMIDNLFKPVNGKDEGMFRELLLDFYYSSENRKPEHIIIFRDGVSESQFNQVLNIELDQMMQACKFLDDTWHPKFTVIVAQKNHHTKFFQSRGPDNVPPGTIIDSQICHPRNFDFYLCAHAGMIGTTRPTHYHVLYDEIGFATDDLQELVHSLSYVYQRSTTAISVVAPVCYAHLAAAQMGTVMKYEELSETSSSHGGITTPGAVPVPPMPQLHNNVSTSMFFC

[3] = target: T3, AGO4 D660A (Arabidopsis thaliana, UniProt Q9ZVD5 1-924, D660A); assay: as above; conditions: protein: ivt, tags: N-terminal 3xFLAG-SUMO, removed by SUMOstar elution, label: target 3' 32P-cordycepin; for Kd: target 28 nt
T3 sequence: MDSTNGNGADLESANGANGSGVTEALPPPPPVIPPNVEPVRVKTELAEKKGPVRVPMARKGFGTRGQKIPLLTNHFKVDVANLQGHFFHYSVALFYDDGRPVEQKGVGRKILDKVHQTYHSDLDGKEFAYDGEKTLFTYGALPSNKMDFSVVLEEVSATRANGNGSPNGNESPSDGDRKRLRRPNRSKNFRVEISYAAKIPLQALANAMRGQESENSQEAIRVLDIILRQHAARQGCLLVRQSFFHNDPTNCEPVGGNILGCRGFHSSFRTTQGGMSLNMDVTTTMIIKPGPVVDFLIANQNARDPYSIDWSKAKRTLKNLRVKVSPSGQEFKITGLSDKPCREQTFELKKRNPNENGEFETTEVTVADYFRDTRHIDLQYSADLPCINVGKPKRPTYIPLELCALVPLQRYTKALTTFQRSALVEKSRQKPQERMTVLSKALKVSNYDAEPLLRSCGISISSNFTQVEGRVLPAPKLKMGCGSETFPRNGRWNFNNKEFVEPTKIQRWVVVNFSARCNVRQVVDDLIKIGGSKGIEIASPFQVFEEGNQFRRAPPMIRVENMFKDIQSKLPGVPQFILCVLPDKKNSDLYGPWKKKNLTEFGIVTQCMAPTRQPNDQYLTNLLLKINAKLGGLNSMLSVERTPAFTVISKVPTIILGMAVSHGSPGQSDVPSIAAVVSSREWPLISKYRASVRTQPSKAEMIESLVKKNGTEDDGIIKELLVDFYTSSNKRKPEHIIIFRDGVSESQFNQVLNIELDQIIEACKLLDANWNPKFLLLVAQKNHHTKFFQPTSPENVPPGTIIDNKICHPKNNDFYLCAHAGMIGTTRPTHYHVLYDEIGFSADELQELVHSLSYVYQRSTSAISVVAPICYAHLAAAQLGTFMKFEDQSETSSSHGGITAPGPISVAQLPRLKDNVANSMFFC

[4] = target: T3, AGO4 D660A; assay: filter binding; did not bind at all; 100 mM KOAc, 18 mM HEPES pH 7.4, 3 mM Mg(OAc)2, 5 mM DTT, 0.01% IGEPAL CA-630, 0.01 mg/ml yeast tRNA; 20 pM target; 25 C, 1 h; conditions: protein: ivt; tags: N-terminal 3xFLAG-SUMO, removed by SUMOstar elution; label: target 3' 32P-cordycepin; only g2-g8 paired
[5] = target: T3, AGO4 D660A; assay: filter binding; 100 mM KOAc, 18 mM HEPES pH 7.4, 3 mM Mg(OAc)2, 5 mM DTT, 0.01% IGEPAL CA-630, 0.01 mg/ml yeast tRNA; 20 pM target; 25 C, 1 h; conditions: protein: ivt; tags: N-terminal 3xFLAG-SUMO, removed by SUMOstar elution; label: target 3' 32P-cordycepin; mismatch at g20-g21

B1: 24-nt 5'A guide / t1T DNA (DNA:RNA)
RNA: AGAGGUAGAUCCUUGUAUAGUCUC
DNA: ACGAGACTATACAAGGATCTACCTCTCAA
modifications: guide 3' 2'-O-methyl
- Kd [1]: 7.3 pM
- Kd [2]: 2.12 pM
- Kd [3]: 0.93 pM

B2: 24-nt 5'A guide / mm8-9 DNA (DNA:RNA)
RNA: AGAGGUAGAUCCUUGUAUAGUCUC
DNA: ACGAGACTATACAAGGAAGTACCTCTCAA
modifications: guide 3' 2'-O-methyl
- binding result ([3]; mismatch at g8-g9): binds

B3: 24-nt 5'A guide / seed-only (2-8) DNA (DNA:RNA)
RNA: AGAGGUAGAUCCUUGUAUAGUCUC
DNA: ACCTCTGATATGTTCCTACTACCTCTCAA
modifications: guide 3' 2'-O-methyl
- binding result [4]: no binding

B4: 24-nt 5'A guide / mm23-24 DNA (DNA:RNA)
RNA: AGAGGUAGAUCCUUGUAUAGUCUC
DNA: ACCTGACTATACAAGGATCTACCTCTCAA
modifications: guide 3' 2'-O-methyl
- binding result ([3]; mismatch at g23-g24): binds

B5: 24-nt 5'A guide / seed-only (2-8) RNA (dsRNA)
RNA 1: AGAGGUAGAUCCUUGUAUAGUCUC
RNA 2: ACCUCUGAUAUGUUCCUACUACCUCUCAA
modifications: guide 3' 2'-O-methyl
- binding result [4]: no binding

B6: 24-nt 5'A guide / t1U RNA (dsRNA)
RNA 1: AGAGGUAGAUCCUUGUAUAGUCUC
RNA 2: ACGAGACUAUACAAGGAUCUACCUCUCAA
modifications: guide 3' 2'-O-methyl
- Kd [1]: 50.4 pM
- Kd [2]: 12.7 pM
- Kd [3]: 1.71 pM

B7: 24-nt 5'A guide / mm6-7 DNA (DNA:RNA)
RNA: AGAGGUAGAUCCUUGUAUAGUCUC
DNA: ACGAGACTATACAAGGATCATCCTCTCAA
modifications: guide 3' 2'-O-methyl
- binding result ([3]; mismatch at g6-g7): binds

B8: 24-nt 5'A guide / mm20-21 DNA (DNA:RNA)
RNA: AGAGGUAGAUCCUUGUAUAGUCUC
DNA: ACGAGTGTATACAAGGATCTACCTCTCAA
modifications: guide 3' 2'-O-methyl
- binding result ([3]; mismatch at g20-g21): binds

B9: 24-nt 5'A guide / mm20-21 RNA (dsRNA)
RNA 1: AGAGGUAGAUCCUUGUAUAGUCUC
RNA 2: ACGAGUGUAUACAAGGAUCUACCUCUCAA
modifications: guide 3' 2'-O-methyl
- binding signal [5]: ~10 fold lower affinity than t1U
